Literature values, collected in PMC5727865.

Biological target: gp120 gp120 (Human immunodeficiency virus 1) (UniProt O70902)
Sequence of UniProt O70902 (O70902 29-500): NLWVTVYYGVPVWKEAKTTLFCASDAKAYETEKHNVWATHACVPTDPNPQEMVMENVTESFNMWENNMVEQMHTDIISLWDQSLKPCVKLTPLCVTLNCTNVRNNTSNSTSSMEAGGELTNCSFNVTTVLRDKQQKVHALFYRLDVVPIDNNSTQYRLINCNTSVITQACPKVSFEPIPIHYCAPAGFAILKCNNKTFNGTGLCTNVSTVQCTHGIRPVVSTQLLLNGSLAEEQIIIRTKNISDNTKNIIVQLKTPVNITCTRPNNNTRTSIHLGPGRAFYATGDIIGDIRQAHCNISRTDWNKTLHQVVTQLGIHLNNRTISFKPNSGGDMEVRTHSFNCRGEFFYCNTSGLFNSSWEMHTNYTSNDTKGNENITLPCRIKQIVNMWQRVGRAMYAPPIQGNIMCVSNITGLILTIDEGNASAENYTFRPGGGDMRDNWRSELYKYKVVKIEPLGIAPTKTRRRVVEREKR

For DC-SIGN (from UniProt Q9NNX6), the Kd is given as 1.7 nM.
